From the nanobody polyreactivity screen of Harvey et al. (2022)

Experiment: yeast display, Sf9 membrane polyspecificity reagent, FACS + sequencing; frameworks hold sequencing errors
In short: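 After 36–48 hours of galactose induction, yeast (Saccharomyces cerevisiae BJ5465) displaying a synthetic nanobody library were stained at 4 °C for 1 hour with 10% biotinylated, detergent-solubilized Sf9 membrane reagent. Streptavidin microbeads enriched the stained cells before FACS sorting into low and high (top ~1%) gates on anti-HA and streptavidin fluorescence. Each clone's polyreactivity label reflects its gate of origin.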

Sequence | polyreactivity (PSR sort gate)
QVQLVESGGGLVQAGGSLRLSCAASGRTFYRNAMGWYRQAPGKERELVATLNSGGSTHYADSVKGRFTISRDNAKNTVYLQMNSLKPEDTAVYYCAARSPSYRGSLSYYWGQGTQVTVSS | high polyreactivity
QVQLVESGGGLVQAGGSLRLSCAASGRTFFKNAMGWYRQAPGKERELVAAITSSGGTTYYADSVKGRFTISRDNAKNTVYLQMNSLKPEDTAVYYCATRTYPIRYGYGYWGQGTQVTVSS | high polyreactivity
QVQLVESGGGLVQAGGSLRLSCAASGSIFKNYAMGWYRQAPGKERELVASITTGASTNYADSVKGRFTISRDNAKNTVYLQMNSLKPEDTAVYYCAKGGRTFRYFVAPRTFDHGYWGQGTQVTVSS | high polyreactivity
QVQLVESGGGLVQAGGSLRLSCAASGSTFGYYTMGWYRQAPGKERELVASIDVSGDSTSYADSVKGRFTISRDNAKNTVYVQMNSLKPEDTAVYYCNTGRYPTSPTHNYWGQGTHVTVSS | low polyreactivity
QVQLVESGGGLVQAGGSLRLSCAASGLIFVNYAMGWYRQAPGKERELVAAISVSGGSTYYADSVKGRFTISRDNAKNTVYLQMNSLNPEDTAVYYCNAYFRSQRYGYRVDYWGQGTQVTVSS | high polyreactivity
QVQLVESGGGLVQAGGSLRLSCAASGSTFKRYTMGWYRQAPGKERELVARISWGGSTTYYAYSVKGRFTISRDNAKNTVYLQMNSLKPEDTAVYYCAASWSWYGNRGTYRYPPRYDYWGQGTQVTVSS | high polyreactivity
QVQLVESGGGLVQAGGSLRLSCAAYGNTFYPYTMGWYRQAPGKERELVADITYIGGDTYYADSVKGRFTISRDNAKNTVYLQMNSLKPEDTAVYYCNKDGGYFETYHTYTLDDYWGQGTQVTVSS | low polyreactivity
QVQLVESGGGLVQAGGSLRLSCAASGRTFTPNGMGWYRQAPGKERELVAAITYGGGITDYADSVKGRFTTSRDNAKNTVYLQMNSLKPEDTAVYYCAATTLSFEGGKYWSKYDYWGQGTQVTVSS | low polyreactivity
QVQLVESGGGLVQAGGSLRLSCAASGRTFTVYAMGWYRLAPGKERELVAAISSGGITNYADSVKGRFTISRDNAKNTVYLQMNSLKPEDTAVYYCNTKSGKARYEFGYWGQGTQVTLSS | low polyreactivity
QVQLVESGGGIVQAGGSLRLSCAASGLTFPPNAMGWYRPAPGKEREFVAVISSGGGSTYYADSVKGRFTISRDNAKNTVYSQMNSLKPEDTAVYYCATEYQDGDTEYYYWGQGTQVTVSS | low polyreactivity
QVQLVESGGGLVQAGGSLRLICAASGRTFGIYAMGWYSPAPGKERELVATISWRGGSTYYADSVKGRFTISRDNAKNSVYLQMNSLKPEDTGVYYCAAGYYPYWGQGTQVTVSS | low polyreactivity
QVQLVESGGGLVQAGGSLRLSCAASGFIFSGYAMGWYRQAPGKERELVATISGSGGSTYYADSVKGRFTISRDNAKNTVYLQMNSLKPEDTAVYYCAARQRGGYGYWGQGTQVTVSS | high polyreactivity
QVQLVESGGGLVQAGGSLRLSCAASVSTFGGYAMGWYRQAPGKERELDAAITYSGGSTYYADSVKGRFTISRDNAKNTVYLQMNSLKPEDTAVYYCNADDDDALPWWWPYVLDVDYWGQGTQVTVSS | low polyreactivity
QVQLVESGGGLVQAGGSLRLSCAASGIIFRTNAMGWYRKAPGKEREFVAAISAGGTRTYYADSVKGRFTISRDNAKNTVYLQMNSLKPEDTAVYYCAAASGYDYWGQGTQVTVSS | high polyreactivity
QVQLVESGGGLVQAGGSLRLSCAASGFTFTPYGMGWYRQAPGKERELVAAITWNGGRTYYADSVKGRFTISRDNAKNTVYLQMNSLKPEDTAVYYCAAVAWSWQKRGYWGQGTQVTVSS | high polyreactivity
QLQLVESGGGLVQAGGSLRLSCAASGLTFYVYAMGWYRQAPCKERELVAAISSGGRTYYADSVKGRFTISRDNAKNTVYLQMNSLKPEDTAVYYCAAVRHRNYGYWGQGTQVTVSS | high polyreactivity
QVQLVESGGGLVQAGGSLRLSCAASGNTFRFYTMGWYRQAPGKERELVAAINSSGRTNYADSVKGRFTISRDNAKNTVYLQMNSLIPEDTAVYYCAADQQRSIDAPYGYWGQGTQVTVSS | low polyreactivity
QGQLVESGGGLVQAGGSLRLSCAASGSIFSKNALGWYRQAPGRERELVAAITSGASTNYADSVKGRFTISRDNAKNTVYLQMNSLKPEDTAGYYCAAKRNGFWYGYWGQGTQVTVSS | low polyreactivity
QVQLEESGGGLVQAGGSLRLSCAASGRTFDVYAMGWYRQAPGKEREFVAAINWSSSSTYYADSVKGRFTISRDNAKNTVYLQMNSLKPEDTAVYYCAARYKRYTRFDYWGQGTQVTVSS | high polyreactivity
QVQLVESGGGLVQAGGSLRLSCAASGSIVVDYAMGWYRQAPGKERELVAAITSTGSTTYADSVKGRFTISRDNAKNTVYLQMNSLKPEDTAVYYCAASFRWYGTVRYPYEMYYWGQGTQVTVSS | low polyreactivity
QVQLVESGGGLVQAGGSLRLSCAASGRTIYQNAMGWYRQAPGKEREFVAAITGGTGSTHYADSVKGRFTISRDNAKITVYLQMNSLKPEDSAVYYCATRYLFGFSRYDYWGQGTQVTVSS | low polyreactivity
QVQLVESGGGLVQAGGSLRLSCAASGITSHPYDMGWYRQAPGKERELVAVITSGGSTSYADSVKGRFTISRDNAKNTVYLQMNSLKPEDTAVYYCNADSWYAWYSYGYDYWGQGTQVTVSS | low polyreactivity

Sequence | polyreactivity (PSR sort gate)
QVQLVESGGGLVQAGGSHRLSCSASGQTFVKNAMGWYRQAPGKERELVAAITVSGSRTYYADSVKGRFTISRDNAKNTVYLQMNSLKPEDTAVYYCAAKTADRFAPYYYWGQGTQVTVSS | high polyreactivity
QVQLVESGGGLVQAGGSISLSCAASGYIFHVYAMGWYRQAPGKERELVAAITSSGGSTYYADSVKGRFTISRDNAKNTVYLQMNSLKPEDTAVYYCAAAPCSFRYRYVVFTFGYWGQGTQVTVSS | high polyreactivity
QVQLVESGGGLVQAGGSLRLSCAASGNTFDYYTMGWYRQAPGKERELVAAISWNGGSTYYADSVKGRFTISRDNAKTTVYLQMNSLKPEDSAVYYCAVLYRSEYDWGQGTQVTVSS | low polyreactivity
QVQLVESGGGLVQAGGSLRLSCAASGRTFYYNAMGWYRQAPGKERELVARITSSGGSTYYADSVKGRFTISRDNAKSTVYLQMNSLKPEDTAVSYCAAGRSRYLWFGRDFDYWGQGTQVTVSS | low polyreactivity
QVQLVESGGGIVQAGGSLRVSCVSSGRTCSRYAMGWSRQAPGKDRELVAAISRRGGSTYYADSVKGRFTISRDNAKNTVYLQMKSLKREDTAVYYCAAGYITWGSGNWVVTPYDYWGQGSQVTVSS | high polyreactivity
QVQLVESGGGIVQAGGSLRLSCAASGLIFYNYAMGWYRQAPGKERELVAAITSGGSTYYADSVKGRFTISRDNAKNTVYLQMNSLKPEDTAVYYCAADLTYTVPFDYWGQGTQVTVSS | high polyreactivity
QVQLVESGGGLVQAGGSLRLSCAASGSTFQHYAMGWYRQAPGKERELVAAITNTGGSTYYADSVKGRFTISRDNAKNTVDLQMNSLKPEDTAVYYCATVGRRYGYPGDYWGQGTQVTVSS | low polyreactivity
QVQLQESGGGLVQAGGSLRLSCAASGTISPLPAMGWYRQAPGKEREFVAGIDTGAITNYADSVKGRFTISRDNAKNTVYLQMNSLIAEDTAVYYCAVFPAAYDYYERYYTYWGQGTQVTVSS | low polyreactivity
QVQLVESGGRLVQAGGSLRLSSAASGRTFRTYALGWYRQAPGTEREFVAAISRRSGITYYADSVKGRFTISRDNAKNTVYLQMNSLKPEDTAVYYCAATGYTGYSRYYYWGQGTQVTVSS | high polyreactivity
QVQLVESGGGLVQAGGSLRLSCAASGSIFSFYAMGWYRQAPGKERELVAAISWSGGSTYYADSVKGRFTISRDNAKNTVYLQMNSLKPEDTAVYYCAADYYYGTYDYWGQGTQVTVST | low polyreactivity
QVQLVESGGCLVQAGGRLRLSCAASGRIFYWNDMGWYRQAPGKERELVAAIDFSGASTYYADSVKGRFTISRDNAKNTVYLEMNSLKPEDTAVYYCAAYQRRGKYQMDYWGQGTQVTVSS | low polyreactivity
QVQLVESGGGLVQAGGSLRLSCAASGRTFDWYVMGWYRQAPGKERELVASIPGTGSTYYADSVKGRFTISRDNAKNTVYLQMNSLKPEDTAVYYCNVAWIWGKYDYWGQGTQVTVSS | high polyreactivity
QVQLVESGGGLVHAGGSLRLSCAASGILFGYYAIGWYRQAPGKERELVAAITSGSSTDYADSVKGRFTISRDNAKNTFYLQMNSLKPEDTAVYYCNAVTSASTYTFPFDYWGQGTQVTVSS | low polyreactivity
QDQLVESGGGLFKAGGSLRLSCAASGFIFSHYAMGWYRQAPGKERELVADISRSGTSTYYADSVTGRFTISRDNAKNTVYLQMNSLKPEDTAVYYFAKEYFFRGFNYRYDYWGQVTQVTVSS | high polyreactivity
QVQLVESGGGLVQAGGSLSLSCAASGRITCGYAMGWYRQAPGKERELVAVINFNGGRTYYADSVKGRFTISRDNAKNTVYLQMNSLKPEDTAVYYCAADSGYEYDYWGQGTQVTVSS | low polyreactivity
QVHRVESGGGLVQAGASLRLSCAASGIIFDTYAMGCYRQAPGKEREIVAAITWNGGSTYYADSVKGRFTISRDNAKNPVYLQMNSLKPEDTPVYYCAKLPRTLTEYGYKGYYWGQGTQVTVSS | low polyreactivity
QVQLVESGVGLVQAGGSLRLSCAASGLIFGRNVMGWYRQAPGKERVLVAAISWSGGRTYYADSVKGRFTISRDNAKNTGYLQMNRLKPEDTAVDYCATDRSTRTYRSPYDYWGQGTQVTVSS | high polyreactivity
QVHLVESGVGLVQAGGSLRLSCASSGRIFYDNSMGWYRQAPGKERELVAAISYRGGSTYYADSVKGRFTISRDNAKNTVYLLMNSLKPEDTAVYYCARAGFTTCPDHDSWGQGTQVTVSS | high polyreactivity
QVHLVDSGGGLFQAGGILRLSCAASGRTIATNAMGWYRQAPGKERELVAGISWRVGRTYYADSVKGRFTISRDNAKNSVYLQMFSLKPEDTAVYYCAANPVRSRYGYWGQGTQVTVSS | high polyreactivity
QVQLVESGGGLVQAGGSLRLSCAASGSIFSRNAMGWYRQAPGKEREFVAAISWSGGRTYYADSVKGRFTISRDNAKNTVYLQMNSLKPEDTAVYYCSKGYSYHWYHVTFYSWGQGTQVTVSS | high polyreactivity
QVQLVESGGGLVQAGGSLRLSCAASGRIFKYYVMGWYRQAPGKEREFVAAISGRGGRTYYADSVKGRFTISRDNAKNTVYLQMNSLKPEDTAVYYCATERQERGPLGYNYWGLGTQVTVSS | high polyreactivity
